Data on 14 molecules can be found in patent US7109299 (dated 2006).

Assay [1] concerns the target T1, native IL-5R α/β complex on cells (TF-1 cells; human eosinophils) (human, UniProt Q01344 21-420; P32927 17-897).
T1 sequence (looked up) 1: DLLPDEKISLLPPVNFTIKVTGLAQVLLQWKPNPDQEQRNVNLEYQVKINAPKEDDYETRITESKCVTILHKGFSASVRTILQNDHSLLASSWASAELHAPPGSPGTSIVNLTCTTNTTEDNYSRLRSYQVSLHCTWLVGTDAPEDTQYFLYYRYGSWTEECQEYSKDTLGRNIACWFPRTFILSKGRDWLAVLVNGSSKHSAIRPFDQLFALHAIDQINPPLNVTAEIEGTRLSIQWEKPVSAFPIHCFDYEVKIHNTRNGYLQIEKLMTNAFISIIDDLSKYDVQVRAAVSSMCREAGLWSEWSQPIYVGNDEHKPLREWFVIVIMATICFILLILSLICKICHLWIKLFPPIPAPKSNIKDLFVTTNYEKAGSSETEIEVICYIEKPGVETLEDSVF
T1 sequence (looked up) 2: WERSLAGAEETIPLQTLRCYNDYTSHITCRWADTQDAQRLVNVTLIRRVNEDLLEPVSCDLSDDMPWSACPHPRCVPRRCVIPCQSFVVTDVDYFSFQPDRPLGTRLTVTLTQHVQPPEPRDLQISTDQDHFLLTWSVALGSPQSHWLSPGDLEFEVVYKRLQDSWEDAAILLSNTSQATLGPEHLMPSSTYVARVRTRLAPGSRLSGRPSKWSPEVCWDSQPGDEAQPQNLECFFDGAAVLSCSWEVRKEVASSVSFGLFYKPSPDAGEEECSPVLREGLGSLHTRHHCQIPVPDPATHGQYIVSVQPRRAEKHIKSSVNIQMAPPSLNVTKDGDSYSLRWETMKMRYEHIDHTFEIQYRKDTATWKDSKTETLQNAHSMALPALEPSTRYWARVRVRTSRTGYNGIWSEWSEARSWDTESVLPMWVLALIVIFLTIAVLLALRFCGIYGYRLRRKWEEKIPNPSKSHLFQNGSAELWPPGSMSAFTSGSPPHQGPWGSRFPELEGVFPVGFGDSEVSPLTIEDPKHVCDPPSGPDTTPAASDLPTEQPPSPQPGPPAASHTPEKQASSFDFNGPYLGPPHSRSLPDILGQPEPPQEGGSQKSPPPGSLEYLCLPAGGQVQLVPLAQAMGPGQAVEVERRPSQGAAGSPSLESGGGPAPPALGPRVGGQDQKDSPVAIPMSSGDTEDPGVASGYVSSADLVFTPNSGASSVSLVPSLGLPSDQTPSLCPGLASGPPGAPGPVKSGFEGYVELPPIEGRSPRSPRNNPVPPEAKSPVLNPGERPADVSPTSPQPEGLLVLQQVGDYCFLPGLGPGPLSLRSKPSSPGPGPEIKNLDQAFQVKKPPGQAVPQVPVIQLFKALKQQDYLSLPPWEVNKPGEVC
As to the kind of experiment: cell-based or functional assay.

Assay [2] deals with IL-5RαECD, extracellular domain (ECD) of the human IL-5 receptor α chain, soluble (human, UniProt Q01344 21-342). As to the kind of experiment: scintillation proximity competition assay, dimer against 20 pM [125I] IL-5 on IL-5Rα coated beads. The procedure:
(§1) Binding affinities of synthetic peptides for IL-5Rα were measured in a scintillation proximity assay (SPA) using radio-iodinated IL-5. Streptavidin coated SPA beads (Amersham) were suspended in IL-5 binding buffer (phosphate buffered saline, 0.1% bovine serum albumin, 0.2% NaN_3) at 2 mg beads/ml of buffer. Biotinylated mAb 179 was adsorbed onto the beads at a ratio of 2 μg Ab/mg beads by incubating the beads and antibody with agitation for at least 2 h. at 4°. The beads were pelleted at 2500 rpm and resuspended at 2 mg/ml in binding buffer. Soluble IL-5Rα was then adsorbed onto the beads by diluting a solution of soluble receptor harvest 1:500 into the bead suspension and incubating with agitation for 2 hr at 4°. The beads were again pelleted at 2500 rpm and resuspended at 2 mg/ml in binding buffer. Competition binding assays were carried out in 100 μl reactions in white polystyrene microtiter plates. […] IL-5 (Amersham). The plates were incubated at room temperature for 1 hour with agitation, then centrifuged for 5 min at 1500 rpm followed by scintillation counting on a Topcount instrument (Packard). […] IL-5 bound in the absence of any competitor. […] IL-5 bound in the presence of 30 nM IL-5. […] IL-5 binding by 50% (IC$50$). In each instance, the dimer has both intramolecular and intermolecular disulfide linkages as shown generically below: […]
(In general: Scintillation proximity formats need no separation of bound from free tracer.)

The target in assay [3] is T2, IL-5RαECD, extracellular domain (ECD) of the human IL-5 receptor α chain, soluble (human, UniProt Q01344 21-342).
T2 construct: extracellular domain; Captured through mAb 179 (anti-HPAP tail) in the plate, SPA and bead assays; also called soluble IL-5Rα; IL-5 receptor alpha chain extracellular domain
T2 sequence (Q01344 whole entry, looked up): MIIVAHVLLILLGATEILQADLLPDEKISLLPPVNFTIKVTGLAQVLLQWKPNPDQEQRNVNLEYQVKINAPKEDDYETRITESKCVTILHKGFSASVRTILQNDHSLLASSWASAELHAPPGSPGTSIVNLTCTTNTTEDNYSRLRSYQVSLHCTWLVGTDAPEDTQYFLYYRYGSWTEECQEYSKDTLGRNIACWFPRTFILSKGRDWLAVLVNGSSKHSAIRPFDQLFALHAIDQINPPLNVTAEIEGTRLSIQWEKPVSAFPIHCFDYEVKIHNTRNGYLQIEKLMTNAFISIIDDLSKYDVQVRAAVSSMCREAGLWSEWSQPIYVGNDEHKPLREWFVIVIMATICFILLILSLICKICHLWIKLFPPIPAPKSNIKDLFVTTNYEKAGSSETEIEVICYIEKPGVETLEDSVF
The assay is described as above. The procedure: as §1

Bridge positions count the residues as written; N and C are the ends. Square brackets hold non-standard residues; d marks the D form. Ends that are not written are not given here. Dap = NC[C@H](N)C(=O)O; Ahx = NCCCCCC(=O)O

B1: dimer of (H)-EGYVCVEWARCPTCK-(OH) (peptide)
peptide: H-EGYVCVEWARCPTCK-OH
modifications: disulfide (positions not given here); also: dimer, intramolecular and intermolecular disulfide linkages, places not given here
Regarding B1, the “Microphysiometer pIC50 (block of the TF-1 cell response to IL-5)” value (“Microphysiometer pIC50” below) in assay [1] amounted to 9.2. Further, in assay [2], the “SPA pIC50” value is 8.7.

For H-TGGGDGYVCVEWARCPTCK-OH (disulfide 15-18; also: homodimer via interchain Cys9-Cys9 disulfide) [AF18748, synthetic dimer of (H)-TGGGDGYVCVEWARCPTCK-(OH)], in assay [1], the “Microphysiometer pIC50” value was found to be 9.6. Moreover, the “SPA pIC50” value in assay [3] stood at 9.1.

B2: dimer of (H)-EGYVCVEFARCPTCR-(OH) (peptide)
peptide: H-EGYVCVEFARCPTCR-OH
modifications: disulfide (positions not given here); also: dimer, intramolecular and intermolecular disulfide linkages, places not given here
With B2, in assay [3], the “SPA pIC50” value amounted to 6.8.

B3: dimer of (Ac)-EGYVCVEWARCPTCR-(NH2) (peptide)
peptide: Ac-EGYVCVEWARCPTCR-NH2
modifications: disulfide (positions not given here); also: dimer, intramolecular and intermolecular disulfide linkages, places not given here
Consider B3, for which the “Microphysiometer pIC50” value in assay [1] was 8.4.

B4: dimer of (H)-GYVCVEFARCPTCG-(NH2) (peptide)
peptide: H-GYVCVEFARCPTCG-NH2
modifications: disulfide (positions not given here); also: dimer, intramolecular and intermolecular disulfide linkages, places not given here
B4: in assay [2], the “SPA pIC50” value stood at 6.1.

B5: dimer of (H)-EGYVCVEFARCPTCG-(NH2) (peptide)
peptide: H-EGYVCVEFARCPTCG-NH2
modifications: disulfide (positions not given here); also: dimer, intramolecular and intermolecular disulfide linkages, places not given here
For the molecule B5, the “SPA pIC50” value in assay [2] stood at 6.6.

B6: dimer of two chains of residues 36-50 of SEQ ID NO: 9 (structure only in drawing CHEM-US-00014) (peptide)
peptide: Ac-EGYV[Dap]VEWARCPTCR-NH2
modifications: cysteine pairing not given here; also: homodimer, link between chains only in drawing
For the molecule B6, in assay [1], the “Microphysiometer pIC50” value amounted to 6.5.

B7: dimer of (Ahx)-EGYVCVEWARCPTCR-(NH2) (peptide)
peptide: [Ahx]EGYVCVEWARCPTCR-NH2
modifications: disulfide (positions not given here); also: dimer, intramolecular and intermolecular disulfide linkages, places not given here
For B7, the “Microphysiometer pIC50” value in assay [1] came out at 9.

B8: dimer of (H)-EGYVCVEWARCPTCR-(OH) (peptide)
peptide: H-EGYVCVEWARCPTCR-OH
modifications: disulfide (positions not given here); also: dimer, intramolecular and intermolecular disulfide linkages, places not given here
With B8, in assay [1], the “Microphysiometer pIC50” value came to 9.6. Further, the “SPA pIC50” value in assay [3] came to 8.4.

B9: dimer of (H)-EGYVCVEWARCPTCR-(NH2) (peptide)
peptide: H-EGYVCVEWARCPTCR-NH2
modifications: disulfide (positions not given here); also: dimer, intramolecular and intermolecular disulfide linkages, places not given here
With B9, in assay [1], the “Microphysiometer pIC50” value is 9.1.

B10: dimer of (H)-EGYVCVEWARCPTCG-(NH2) (peptide)
peptide: H-EGYVCVEWARCPTCG-NH2
modifications: disulfide (positions not given here); also: dimer, intramolecular and intermolecular disulfide linkages, places not given here
As for B10, the “Microphysiometer pIC50” value in assay [1] turned out to be 9.1.

B11: dimer of (H)-GYVCVEWARCPTCR-(OH) (peptide)
peptide: H-GYVCVEWARCPTCR-OH
modifications: disulfide (positions not given here); also: dimer, intramolecular and intermolecular disulfide linkages, places not given here
In the case of B11, in assay [1], the “Microphysiometer pIC50” value is 8.4. Besides, the “SPA pIC50” value in assay [2] stood at 8.2.

B12: dimer of (Ac)-EGYVCVEWARCPTCK-(NH2) (peptide)
peptide: Ac-EGYVCVEWARCPTCK-NH2
modifications: disulfide (positions not given here); also: dimer, intramolecular and intermolecular disulfide linkages, places not given here
As to B12, the “Microphysiometer pIC50” value in assay [1] was determined as 8.5.

B13: dimer of (Ac)-EGYVCVEWAACPTCR-(NH2) (peptide)
peptide: Ac-EGYVCVEWAACPTCR-NH2
modifications: disulfide (positions not given here); also: dimer, intramolecular and intermolecular disulfides, places not given here
For the molecule B13, the “Microphysiometer pIC50” value in assay [1] is 6.9.
